Source: patent publication US10918697B2, “Co-activation of mTOR and STAT3 pathways to promote neuronal survival and regeneration” (Children's Medical Center Corporation, priority 2011, dated 2021)
Entries after “also recorded” stand apart in the source; their conditions may differ.

Columns and labels:
[1] = tested on: retinal ganglion cells (RGCs) / optic nerve axons; settings: SOCS3f/f mice, CNTF applied intravitreously; cited from earlier work
[2] = tested on: corticospinal tract (CST) axons; test: CST sprouting after intraspinal CNTF injection without pyramidotomy, BDA tracing; format: in vivo, mice
Procedure: For pyramidotomy, mice were anesthetized with ketamine/xylazine. The procedure is similar to that described previously […]. Briefly, an incision was made at the left side of the trachea. Blunt dissection was performed to expose the skull base and a craniotomy in the occipital bone allowed for access to the medullary pyramids. The left pyramid was cut with a fine scalpel medially up to the basilar artery. The wound was dosed in layers with 6.0 sutures. The mice were placed on soft bedding on a warming blanket held at 37° C. until fully awake. We traced the intact CST 4 weeks later with BDA (see below). For CNTF injection into adult SOCS3 f/f mice with neonatal AAV-Cre cortical injection, a laminectomy was performed at C1 and 1 ul of CNTF (10 ug/ml, PeproTech, 450-13) was injected with a nanoliter injector into the ventral side of the dorsal column (0.5 mm deep). BDA tracing was performed 6 weeks later.
To label CST axons by anterograde tracing, a total of 2.0 μl of BDA (10%, Invitrogen, D-1956) was injected into the right sensorimotor cortex at five sites (anterior-posterior coordinates from bregma in mm; 1.0, 0.5, 0, −0.5, −1.0, all at 1.0 mm lateral and at a depth of 0.5 mm). Mice were kept for an additional 2 weeks before being sacrificed.
Mice were given a lethal dose of anesthesia and transcardially perfused with 4% paraformaldehyde. Brains and spinal cords were isolated and post-fixed in the same fixative overnight at 4° C. Tissues were cryoprotected via increasing concentrations of sucrose. After embedding into OCT compound, the samples were snap frozen in dry ice. […]
For the groups of pyramidotomy, digital images of C7 or other levels of the spinal cord transverse sections were collected using a Nikon fluorescence microscope. […]
To quantify the number of sprouting axons, the methods used in previous studies (Liu et al., 2010) were followed. […] Only fibers crossing the three lines were counted in each section. The results were presented after normalization with the number of counted CST fibers at the medulla level. At least three sections were counted for each mouse.

B1: ciliary neurotrophic factor (protein, UniProt P26441 1-200, looked up)
Ciliary neurotrophic factor: MAFTEHSPLTPHRRDLCSRSIWLARKIRSDLTALTESYVKHQGLNKNINLDSADGMPVASTDQWSELTEAERLQENLQAYRTFHVLLARLLEDQQVHFTPTEGDFHQAIHTLLLQVAAFAYQIEELMILLEYKIPRNEADGMPINVGDGGLFEKKLWGLKVLQELSQWTVRSIHDLRFISSHQTGIPARGSHYIANNKKM
In the case of B1, the “effect of intravitreal CNTF on axon regeneration induced by SOCS3 deletion” value [1] is given as “enhances axon regeneration induced by SOCS3 deletion”, the “CST sprouting at C7 spinal cord level” value ([2]; SOCS3f/f mice, cortical AAV-Cre at P1, CNTF injected at C1, no injury) is given as “but not C7; also recorded: No CST sprouts seen” and the “CST sprouting at C1 spinal cord level” value ([2]; SOCS3f/f mice, cortical AAV-Cre at P1, CNTF injected into dorsal spinal cord at C1 in adulthood, no injury, vs saline) is given as “triggered a significant CST sprouting response; also recorded: promotes sprouting in SOCS3-deleted neurons in the absence of an injury; also recorded: numerous crossing CST axons”. The “extent of CST sprouting compared with left pyramidotomy” value ([2]; single CNTF injection at C1, SOCS3-deleted mice) was “less than after left pyramidotomy; also recorded: less pronounced than what is seen after injury”.
